Test results: paper PMC4081072, “Structure and semi-sequence-specific RNA binding of Nrd1”

Key:
Assay in all cases: fluorescence anisotropy; FA: 10 nM RNA, 50 mM sodium phosphate pH 8, 150 mM NaCl, 10 mM beta-mercaptoethanol, 20 C (protein stock in 300 mM NaCl); NMR: same buffer with 300 mM NaCl, 20
Settings in all cases: protein: recombinant; tags: C-terminal His6; label: 5' fluorescein or TAMRA (FA); unlabeled (NMR)
Nrd1 307-491 WT = target: T1, Nrd1 307-491 WT (Saccharomyces cerevisiae, UniProt P53617 307-491)
T1 sequence: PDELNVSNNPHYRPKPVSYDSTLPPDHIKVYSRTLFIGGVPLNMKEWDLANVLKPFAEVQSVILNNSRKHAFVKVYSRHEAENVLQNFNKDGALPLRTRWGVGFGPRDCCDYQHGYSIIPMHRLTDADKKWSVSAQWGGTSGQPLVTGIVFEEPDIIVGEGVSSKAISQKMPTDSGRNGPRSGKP

Nrd1 307-491 D417A = target: T2, Nrd1 307-491 D417A (Saccharomyces cerevisiae, UniProt P53617 307-491, D417A)
T2 sequence: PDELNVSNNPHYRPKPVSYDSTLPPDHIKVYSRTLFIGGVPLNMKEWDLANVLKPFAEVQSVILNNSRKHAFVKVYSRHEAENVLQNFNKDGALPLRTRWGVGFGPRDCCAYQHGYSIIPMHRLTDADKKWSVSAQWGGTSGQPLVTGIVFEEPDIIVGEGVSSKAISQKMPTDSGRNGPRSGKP

Nrd1 307-491 T340A = target: T3, Nrd1 307-491 T340A (Saccharomyces cerevisiae, UniProt P53617 307-491, T340A)
T3 sequence: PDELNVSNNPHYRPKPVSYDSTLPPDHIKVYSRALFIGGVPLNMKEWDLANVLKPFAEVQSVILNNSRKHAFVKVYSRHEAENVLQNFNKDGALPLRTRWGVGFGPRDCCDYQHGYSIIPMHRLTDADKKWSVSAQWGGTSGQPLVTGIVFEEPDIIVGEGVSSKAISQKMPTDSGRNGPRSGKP

Nrd1 307-491 K435D = target: T4, Nrd1 307-491 K435D (Saccharomyces cerevisiae, UniProt P53617 307-491, K435D)
T4 sequence: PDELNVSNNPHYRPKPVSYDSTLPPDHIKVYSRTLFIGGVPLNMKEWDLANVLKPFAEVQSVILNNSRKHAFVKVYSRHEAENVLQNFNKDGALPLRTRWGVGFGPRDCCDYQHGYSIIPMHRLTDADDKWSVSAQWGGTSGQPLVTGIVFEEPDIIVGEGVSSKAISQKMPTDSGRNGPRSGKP

Nrd1 307-491 H385A = target: T5, Nrd1 307-491 H385A (Saccharomyces cerevisiae, UniProt P53617 307-491, H385A)
T5 sequence: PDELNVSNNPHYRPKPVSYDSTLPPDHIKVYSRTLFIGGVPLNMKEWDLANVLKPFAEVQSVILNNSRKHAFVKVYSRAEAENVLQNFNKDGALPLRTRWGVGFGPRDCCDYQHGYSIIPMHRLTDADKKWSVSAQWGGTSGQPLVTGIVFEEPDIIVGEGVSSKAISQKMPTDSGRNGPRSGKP

Nrd1 307-491 R429D = target: T6, Nrd1 307-491 R429D (Saccharomyces cerevisiae, UniProt P53617 307-491, R429D)
T6 sequence: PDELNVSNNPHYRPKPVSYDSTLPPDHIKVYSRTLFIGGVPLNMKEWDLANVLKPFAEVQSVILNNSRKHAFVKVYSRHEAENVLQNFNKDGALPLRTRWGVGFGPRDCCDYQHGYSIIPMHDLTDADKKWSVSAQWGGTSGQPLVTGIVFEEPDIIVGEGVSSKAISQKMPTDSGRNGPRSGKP

GUAA (ssRNA)
Kd (Nrd1 307-491 WT): 10.1 ± 0.8 µM
Kd (Nrd1 307-491 D417A): 17.9 ± 2 µM
Kd (Nrd1 307-491 T340A): 153 ± 32.8 µM
Kd (Nrd1 307-491 K435D): 16.2 ± 1.7 µM
Kd (Nrd1 307-491 H385A): 10.3 ± 1.7 µM
Kd (Nrd1 307-491 R429D): 24.1 ± 1.7 µM
